Measurements: PMC9935876, “Structure of the planar cell polarity cadherins Fat4 and Dachsous1” (Nature Communications, 2023)
Positions count from the first letter of the chain named. Names and notes keep the numbering of the source. Values joined by “and” are separate entries in the source; they are usually repeats but may differ in a detail not shown here. Equal entries are not always repeated. Where two headings read alike, the source gives them in different places.

Experiments:
[1] = target: Drosophila Ft(EC1–4), phosphorylated (Drosophila); assay: ITC; fly Ft(EC1–4) at ~50 μM and Ds(EC1–4) at ~300 μM, unmodified or phosphorylated with Fj; same conditions as for the human proteins (20 °C); one set of sites
[2] = target: Phosphorylated Drosophila Ft(EC1-4) (Drosophila) (UniProt P33450); assay: ITC; MicroCal ITC200; fly Ft(EC1-4) ~50 µM and Ds(EC1-4) ~300 µM, unmodified or phosphorylated with Fj; same conditions as for the human proteins (20 °C); fitted with one set of sites; two independent experiments
[3] = target: Phosphorylated Drosophila Ft(EC1-4) (Drosophila) (UniProt P33450); assay: ITC; MicroCal ITC200; fly Ft(EC1-4) ~50 µM, fly Ds(EC1-4) ~300 µM; proteins phosphorylated with Fj as needed; 20 °C; one set of sites
CDH23 EC1-EC2 = CDH23 EC1-EC2 (UniProt Q99PF4); details: cited from earlier work
Human Fat4(EC1-4) [4] = target: T1, Human Fat4(EC1-4) (human, UniProt Q6V0I7 43-475); assay: ITC; MicroCal ITC200; Fat4 constructs 30 µM in the sample cell, Dchs1 constructs 300 µM as titrants; 20 °C; one set of sites; details: both partners purified
T1 construct: human Fat4, extracellular cadherin domains EC1-EC4, aa43-475; A 3C protease site stands between the protein and the C-terminal BAP-tag and His6; also called WT
T1 sequence: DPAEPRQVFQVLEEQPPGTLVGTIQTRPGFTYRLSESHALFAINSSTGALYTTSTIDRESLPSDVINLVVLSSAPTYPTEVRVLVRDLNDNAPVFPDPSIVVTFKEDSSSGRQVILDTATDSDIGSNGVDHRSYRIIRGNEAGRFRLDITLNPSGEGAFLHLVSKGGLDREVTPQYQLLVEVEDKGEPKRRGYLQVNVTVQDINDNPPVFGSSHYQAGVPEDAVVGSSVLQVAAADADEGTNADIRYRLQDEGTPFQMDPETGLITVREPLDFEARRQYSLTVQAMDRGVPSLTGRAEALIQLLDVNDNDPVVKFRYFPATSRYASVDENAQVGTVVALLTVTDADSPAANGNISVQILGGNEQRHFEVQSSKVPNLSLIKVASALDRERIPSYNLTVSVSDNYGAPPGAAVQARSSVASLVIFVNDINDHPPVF

human Fat4(EC1–4) = target: T2, human Fat4(EC1–4) (human, UniProt Q6V0I7 43-475); assay: ITC; MicroCal ITC200; Fat4 constructs at 30 µM in the sample cell, Dchs1 constructs at 300 µM as titrants; 20 °C; one set of sites; details: both partners purified
T2 construct: human Fat4, EC1–EC4, aa43–475; Form used in ITC; also called wild type Fat4(EC1–4)
T2 sequence: T1 sequence

Human Fat4(EC1-4) [5] = target: T3, Human Fat4(EC1-4) (human, UniProt Q6V0I7 43-475); assay: ITC; MicroCal ITC200; Fat4 construct 30 µM in the sample cell, Dchs1 construct 300 µM as titrant; 20 °C; fitted with one set of sites; two independent experiments; details: both partners purified
T3 construct: Fat4, human, EC1-EC4, aa43-475; Tags were cleaved only for the constructs meant for co-crystallisation; nothing is said for ITC; also called Fat4 EC1–EC4
T3 sequence: T1 sequence

Human Fat4(EC1-4) R152A [6] = target: T4, Human Fat4(EC1-4) R152A (human, UniProt Q6V0I7 43-475, R152A); assay: ITC; MicroCal ITC200; Fat4 constructs at 30 µM in the sample cell, Dchs1 constructs at 300 µM as titrants; 20 °C; one set of sites
T4 construct: human Fat4, EC1-EC4, aa43-475, with R152A in EC2; also called Fat4R152A(EC1-4); Fat4R152A
T4 sequence: T1 sequence with R112A

Human Fat4(EC1-4) F358A = target: T5, Human Fat4(EC1-4) F358A (human, UniProt Q6V0I7 43-475, F358A); assay: ITC; MicroCal ITC200; Fat4 constructs 30 µM in the sample cell, Dchs1 constructs 300 µM as titrants; 20 °C; one set of sites; details: both partners purified
T5 construct: human Fat4, EC1-EC4, aa43-475, with F358A in EC4; also called Fat4F358A(EC1-4); Fat4F358A
T5 sequence: T1 sequence with F318A

Human Fat4(EC1-4) R152A [7] = target: T4, Human Fat4(EC1-4) R152A; assay: as above; details: both partners purified
[8] = target: Human Fat4R152A(EC1-4) (human) (UniProt Q6V0I7); assay: ITC; MicroCal ITC200; Fat4 construct 30 µM in the sample cell, Dchs1 construct 300 µM as titrant; 20 °C; fitted with one set of sites; two independent experiments

Phosphorylated Drosophila Ft(EC1-4) (Drosophila), sequence (P33450 36-5147): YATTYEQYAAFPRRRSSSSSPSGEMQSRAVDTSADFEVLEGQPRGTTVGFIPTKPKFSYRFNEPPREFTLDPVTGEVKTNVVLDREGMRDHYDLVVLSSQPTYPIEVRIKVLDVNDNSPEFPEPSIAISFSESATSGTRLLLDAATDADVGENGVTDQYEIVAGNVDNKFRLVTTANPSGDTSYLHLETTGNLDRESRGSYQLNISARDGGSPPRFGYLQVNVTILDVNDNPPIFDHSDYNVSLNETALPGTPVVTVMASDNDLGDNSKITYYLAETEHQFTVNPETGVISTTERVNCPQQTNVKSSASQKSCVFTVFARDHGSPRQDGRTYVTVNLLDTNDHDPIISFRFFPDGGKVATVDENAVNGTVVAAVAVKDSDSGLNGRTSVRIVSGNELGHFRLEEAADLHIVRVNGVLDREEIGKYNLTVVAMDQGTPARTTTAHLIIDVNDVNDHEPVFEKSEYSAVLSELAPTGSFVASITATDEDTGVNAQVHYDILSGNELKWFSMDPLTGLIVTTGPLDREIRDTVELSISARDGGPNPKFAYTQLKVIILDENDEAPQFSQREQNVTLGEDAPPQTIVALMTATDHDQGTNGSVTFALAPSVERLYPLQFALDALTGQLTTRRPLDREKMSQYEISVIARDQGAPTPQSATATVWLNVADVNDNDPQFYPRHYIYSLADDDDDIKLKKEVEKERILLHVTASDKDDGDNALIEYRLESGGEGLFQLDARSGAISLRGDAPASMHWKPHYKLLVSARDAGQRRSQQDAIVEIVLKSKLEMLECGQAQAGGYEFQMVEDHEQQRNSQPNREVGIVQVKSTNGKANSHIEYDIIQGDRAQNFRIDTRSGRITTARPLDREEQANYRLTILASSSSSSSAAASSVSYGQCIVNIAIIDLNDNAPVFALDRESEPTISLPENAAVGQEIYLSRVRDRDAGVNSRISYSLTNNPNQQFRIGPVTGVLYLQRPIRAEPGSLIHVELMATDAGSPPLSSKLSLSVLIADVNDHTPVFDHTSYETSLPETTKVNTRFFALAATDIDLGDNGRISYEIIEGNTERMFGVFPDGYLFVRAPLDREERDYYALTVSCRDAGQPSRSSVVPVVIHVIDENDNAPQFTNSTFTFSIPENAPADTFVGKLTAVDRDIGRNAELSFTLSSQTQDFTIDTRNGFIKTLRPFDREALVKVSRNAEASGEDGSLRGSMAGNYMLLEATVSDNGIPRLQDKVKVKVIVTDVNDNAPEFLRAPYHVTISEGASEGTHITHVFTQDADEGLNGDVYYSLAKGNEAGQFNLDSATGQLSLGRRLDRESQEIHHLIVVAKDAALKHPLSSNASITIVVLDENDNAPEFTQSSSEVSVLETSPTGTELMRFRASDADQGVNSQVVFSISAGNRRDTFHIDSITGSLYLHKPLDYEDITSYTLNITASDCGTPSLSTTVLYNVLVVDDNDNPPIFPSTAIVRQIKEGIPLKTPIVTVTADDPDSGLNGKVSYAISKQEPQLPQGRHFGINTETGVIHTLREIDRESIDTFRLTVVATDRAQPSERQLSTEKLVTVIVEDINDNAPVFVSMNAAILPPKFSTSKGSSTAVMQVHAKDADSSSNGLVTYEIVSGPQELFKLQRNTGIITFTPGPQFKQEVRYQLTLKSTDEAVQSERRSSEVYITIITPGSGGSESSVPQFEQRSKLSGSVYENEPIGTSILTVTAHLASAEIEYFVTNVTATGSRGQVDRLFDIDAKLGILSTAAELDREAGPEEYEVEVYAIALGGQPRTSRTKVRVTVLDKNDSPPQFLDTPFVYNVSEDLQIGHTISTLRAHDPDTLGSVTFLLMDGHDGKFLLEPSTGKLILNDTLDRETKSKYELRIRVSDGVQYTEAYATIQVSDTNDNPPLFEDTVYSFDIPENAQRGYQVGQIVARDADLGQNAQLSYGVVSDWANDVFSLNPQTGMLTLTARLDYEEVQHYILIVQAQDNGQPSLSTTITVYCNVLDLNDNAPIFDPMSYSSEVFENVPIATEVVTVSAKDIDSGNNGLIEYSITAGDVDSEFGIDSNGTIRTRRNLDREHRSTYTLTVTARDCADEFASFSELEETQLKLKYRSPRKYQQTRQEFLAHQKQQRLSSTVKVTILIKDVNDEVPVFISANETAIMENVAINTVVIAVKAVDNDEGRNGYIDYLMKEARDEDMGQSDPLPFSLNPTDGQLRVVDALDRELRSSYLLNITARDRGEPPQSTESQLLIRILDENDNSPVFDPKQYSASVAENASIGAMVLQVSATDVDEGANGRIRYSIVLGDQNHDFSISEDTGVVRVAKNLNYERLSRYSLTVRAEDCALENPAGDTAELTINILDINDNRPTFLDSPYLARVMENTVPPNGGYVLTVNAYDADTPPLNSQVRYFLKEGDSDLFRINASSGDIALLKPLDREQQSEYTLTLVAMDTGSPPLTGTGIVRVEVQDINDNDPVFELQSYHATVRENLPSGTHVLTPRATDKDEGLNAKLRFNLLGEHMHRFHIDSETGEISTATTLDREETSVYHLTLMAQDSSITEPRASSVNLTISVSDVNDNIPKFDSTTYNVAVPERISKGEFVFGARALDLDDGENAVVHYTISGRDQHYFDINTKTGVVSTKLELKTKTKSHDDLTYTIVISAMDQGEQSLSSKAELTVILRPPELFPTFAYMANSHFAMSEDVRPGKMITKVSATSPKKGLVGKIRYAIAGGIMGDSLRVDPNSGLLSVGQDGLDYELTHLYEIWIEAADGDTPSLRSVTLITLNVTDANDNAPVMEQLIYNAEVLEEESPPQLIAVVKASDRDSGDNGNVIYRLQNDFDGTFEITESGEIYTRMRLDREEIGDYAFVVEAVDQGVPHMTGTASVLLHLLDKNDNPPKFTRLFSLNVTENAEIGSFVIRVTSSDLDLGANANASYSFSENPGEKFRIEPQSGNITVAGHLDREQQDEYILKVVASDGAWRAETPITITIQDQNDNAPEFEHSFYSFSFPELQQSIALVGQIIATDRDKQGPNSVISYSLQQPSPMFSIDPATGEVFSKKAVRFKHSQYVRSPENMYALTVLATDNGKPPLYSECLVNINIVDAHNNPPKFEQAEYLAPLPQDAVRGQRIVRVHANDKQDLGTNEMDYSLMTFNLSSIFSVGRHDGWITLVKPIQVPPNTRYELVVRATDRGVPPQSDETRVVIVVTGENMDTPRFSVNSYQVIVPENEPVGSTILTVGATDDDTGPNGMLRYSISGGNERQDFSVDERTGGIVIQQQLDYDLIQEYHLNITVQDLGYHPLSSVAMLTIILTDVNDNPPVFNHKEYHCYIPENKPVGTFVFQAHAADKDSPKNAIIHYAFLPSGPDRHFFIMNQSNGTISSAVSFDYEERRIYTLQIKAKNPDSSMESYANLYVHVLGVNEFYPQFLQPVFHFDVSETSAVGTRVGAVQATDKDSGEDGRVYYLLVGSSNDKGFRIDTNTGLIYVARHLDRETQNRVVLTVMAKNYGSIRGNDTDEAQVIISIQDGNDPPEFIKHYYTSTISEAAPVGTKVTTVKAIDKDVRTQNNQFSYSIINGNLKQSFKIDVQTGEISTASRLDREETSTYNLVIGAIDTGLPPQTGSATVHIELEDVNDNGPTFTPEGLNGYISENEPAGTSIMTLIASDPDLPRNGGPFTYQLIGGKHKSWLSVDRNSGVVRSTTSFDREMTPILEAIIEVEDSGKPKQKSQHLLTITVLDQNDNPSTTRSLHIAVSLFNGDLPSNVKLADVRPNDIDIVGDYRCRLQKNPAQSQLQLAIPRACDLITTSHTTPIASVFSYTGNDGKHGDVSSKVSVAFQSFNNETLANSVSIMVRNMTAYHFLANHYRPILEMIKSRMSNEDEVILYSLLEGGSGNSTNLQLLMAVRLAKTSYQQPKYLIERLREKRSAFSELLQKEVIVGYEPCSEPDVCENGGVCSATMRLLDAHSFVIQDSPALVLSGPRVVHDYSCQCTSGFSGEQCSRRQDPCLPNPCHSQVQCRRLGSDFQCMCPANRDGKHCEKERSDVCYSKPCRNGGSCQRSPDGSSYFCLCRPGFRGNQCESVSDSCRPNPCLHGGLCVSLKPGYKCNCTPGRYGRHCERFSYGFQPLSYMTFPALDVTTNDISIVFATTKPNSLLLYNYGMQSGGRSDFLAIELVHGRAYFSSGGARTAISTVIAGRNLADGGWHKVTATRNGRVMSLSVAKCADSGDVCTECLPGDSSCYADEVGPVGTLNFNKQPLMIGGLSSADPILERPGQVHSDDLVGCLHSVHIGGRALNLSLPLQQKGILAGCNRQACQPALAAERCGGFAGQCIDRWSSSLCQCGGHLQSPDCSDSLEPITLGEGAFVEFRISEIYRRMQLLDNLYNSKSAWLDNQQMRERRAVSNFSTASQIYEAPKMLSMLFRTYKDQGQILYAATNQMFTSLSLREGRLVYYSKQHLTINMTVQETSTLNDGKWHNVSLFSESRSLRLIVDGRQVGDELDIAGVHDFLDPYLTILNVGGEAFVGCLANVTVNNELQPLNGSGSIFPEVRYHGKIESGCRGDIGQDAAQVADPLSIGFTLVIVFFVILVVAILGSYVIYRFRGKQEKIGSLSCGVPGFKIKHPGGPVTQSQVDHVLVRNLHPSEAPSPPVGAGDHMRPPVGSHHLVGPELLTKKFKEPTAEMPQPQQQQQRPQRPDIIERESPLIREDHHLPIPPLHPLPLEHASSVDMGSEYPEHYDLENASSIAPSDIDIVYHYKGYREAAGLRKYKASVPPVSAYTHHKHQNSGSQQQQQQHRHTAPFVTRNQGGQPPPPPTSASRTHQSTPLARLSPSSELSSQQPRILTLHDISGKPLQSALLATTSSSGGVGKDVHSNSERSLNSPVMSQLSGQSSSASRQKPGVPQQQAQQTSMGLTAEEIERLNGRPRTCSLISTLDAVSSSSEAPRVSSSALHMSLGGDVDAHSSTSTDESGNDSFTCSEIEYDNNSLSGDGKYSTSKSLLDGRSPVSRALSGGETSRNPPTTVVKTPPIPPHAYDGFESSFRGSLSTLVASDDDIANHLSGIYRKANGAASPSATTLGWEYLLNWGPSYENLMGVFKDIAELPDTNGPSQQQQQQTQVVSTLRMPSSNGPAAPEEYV

Molecule: Drosophila Ds(EC1–4), unmodified (domain or fragment)
- Kd [1]: 4.58 µM

Molecule: Drosophila Ds(EC1-4), unmodified (from UniProt Q24292 74-3556) (domain or fragment)
- Kd [2]: 4.1 µM and 5.05 µM

Molecule: Phosphorylated Drosophila Ds(EC1-4) (from UniProt Q24292 74-3556) (domain or fragment)
- stoichiometry N [3]: 0.751 sites
- Kd [2]: 13.6 µM and 11.4 µM

Molecule: PCDH15 EC1-EC2 (from UniProt Q99PJ1)
- Kd (CDH23 EC1-EC2): 2.9 µM

Molecule: Drosophila Ds(EC1-4) (from UniProt Q24292 74-3556) (domain or fragment)
- stoichiometry N [3]: 0.777 sites

Molecule: Drosophila Ds(EC1–4), phosphorylated (domain or fragment)
- Kd [1]: 12.5 µM

B1: Human Dchs1(EC1-3) (domain or fragment)
chain: DPQAGSLDLQIDEEQPAGTLIGDISAGLPAGTAAPLMYFISAQEGSGVGTDLAIDEHSGVVRTARVLDREQRDRYRFTAVTPDGATVEVTVRVADINDHAPAFPQARAALQVPEHTAFGTRYPLEPARDADAGRLGTQGYALSGDGAGETFRLETRPGPDGTPVPELVVTGELDRENRSHYMLQLEAYDGGSPPRRAQALLDVTLLDINDHAPAFNQSRYHAVVSESLAPGSPVLQVFASDADAGVNGAVTYEINRRQSEGDGPFSIDAHTGLLQLERPLDFEQRRVHELVVQARDGGAHPELGSAFVTVHVRDANDNQPSM
notes: human Dachsous1 (Dchs1), extracellular cadherin domains EC1-EC3, aa43-362; A 3C protease site stands between the protein and the C-terminal BAP-tag and His6
- stoichiometry N (Human Fat4(EC1-4) [4]): 0.978 ± 0.0137 sites

B2: human Dchs1(EC1–3) (domain or fragment)
chain: B1 chain
notes: human Dchs1, EC1–EC3, aa43–362; Form used in ITC; also called wild type Dchs1(EC1–3)
- Kd (human Fat4(EC1–4)): 0.98 ± 0.12 µM

B3: Human Dchs1(EC1-3) (domain or fragment)
chain: B1 chain
notes: Dchs1 (Dachsous1), human, EC1-EC3, aa43-362
- Kd (Human Fat4(EC1-4) [5]): 0.98 µM and 0.97 µM

B4: human Dchs1(EC1–4) (domain or fragment)
chain: DPQAGSLDLQIDEEQPAGTLIGDISAGLPAGTAAPLMYFISAQEGSGVGTDLAIDEHSGVVRTARVLDREQRDRYRFTAVTPDGATVEVTVRVADINDHAPAFPQARAALQVPEHTAFGTRYPLEPARDADAGRLGTQGYALSGDGAGETFRLETRPGPDGTPVPELVVTGELDRENRSHYMLQLEAYDGGSPPRRAQALLDVTLLDINDHAPAFNQSRYHAVVSESLAPGSPVLQVFASDADAGVNGAVTYEINRRQSEGDGPFSIDAHTGLLQLERPLDFEQRRVHELVVQARDGGAHPELGSAFVTVHVRDANDNQPSMTVIFLSADGSPQVSEAAPPGQLVARISVSDPDDGDFAHVNVSLEGGEGHFALSTQDSVIYLVCVARRLDREERDAYNLRVTATDSGSPPLRAEAAFVLHVTDVNDNAPAF
- fold decrease in binding affinity against wild type (Human Fat4(EC1-4) R152A [6]): 9 fold

B5: Human Dchs1(EC1-4) (domain or fragment)
chain: B4 chain
notes: human Dachsous1 (Dchs1), extracellular cadherin domains EC1-EC4, aa43-472; A 3C protease site stands between the protein and the C-terminal BAP-tag and His6; also called Dachsous1; WT
- stoichiometry N (Human Fat4(EC1-4) [4]): 1.06 ± 0.0114 sites
- stoichiometry N (Human Fat4(EC1-4) F358A): 0.915 ± 0.0119 sites
- stoichiometry N (Human Fat4(EC1-4) R152A [7]): 0.965 ± 0.0359 sites

B6: Human Dchs1(EC1-4) (domain or fragment)
chain: B4 chain
- Kd [8]: 3.39 µM and 5.18 µM
- Kd ([8]; mean): 4.29 µM

B7: human Dchs1(EC1–4) (domain or fragment)
chain: B4 chain
notes: human Dchs1, EC1–EC4, aa43–472; Form used in ITC; also called Dachsous1(EC1–4); wild type Dchs1(EC1–4)
- Kd (human Fat4(EC1–4)): 0.47 ± 0.13 µM

B8: Human Dchs1(EC1-4) F79A (domain or fragment)
chain: B4 chain with F39A
notes: human Dachsous1 (Dchs1), EC1-EC4, aa43-472, with F79A in EC1; also called Dchs1F79A(EC1-4); Dchs1F79A
- stoichiometry N (Human Fat4(EC1-4) [4]): 0.924 ± 0.00978 sites

B9: Human Dchs1(EC1-4) R297A (domain or fragment)
chain: B4 chain with R257A
notes: human Dachsous1 (Dchs1), EC1-EC4, aa43-472, with R297A; also called Dchs1R297A(EC1-4); Dchs1R297A
- stoichiometry N (Human Fat4(EC1-4) [4]): 1.02 ± 0.138 sites
